Assay [1] addresses full-length NiVB-RBP expressed on the surface of transfected cells (Nipah virus, strain Bangladesh, UniProt Q9IH62 182-602).
Assay [2] has as its target T1, full-length NiVM-RBP expressed on the surface of transfected cells (Nipah virus, strain Malaysia, UniProt Q9IH62 182-602).
T1 sequence: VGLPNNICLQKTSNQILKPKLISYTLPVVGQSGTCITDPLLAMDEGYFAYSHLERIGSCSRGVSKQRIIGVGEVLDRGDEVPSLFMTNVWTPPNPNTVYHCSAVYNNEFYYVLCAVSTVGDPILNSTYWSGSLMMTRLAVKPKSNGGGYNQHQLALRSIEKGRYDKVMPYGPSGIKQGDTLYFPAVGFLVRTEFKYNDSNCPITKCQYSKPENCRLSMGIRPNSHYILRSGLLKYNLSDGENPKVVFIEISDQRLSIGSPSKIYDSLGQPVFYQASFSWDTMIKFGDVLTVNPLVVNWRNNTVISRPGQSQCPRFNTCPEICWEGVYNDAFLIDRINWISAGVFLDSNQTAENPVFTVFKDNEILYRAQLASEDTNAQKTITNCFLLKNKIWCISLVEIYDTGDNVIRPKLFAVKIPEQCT

Assay [3] concerns the target T2, full-length HeV-RBP expressed on the surface of transfected cells (Hendra virus, UniProt O89343 182-603).
T2 sequence: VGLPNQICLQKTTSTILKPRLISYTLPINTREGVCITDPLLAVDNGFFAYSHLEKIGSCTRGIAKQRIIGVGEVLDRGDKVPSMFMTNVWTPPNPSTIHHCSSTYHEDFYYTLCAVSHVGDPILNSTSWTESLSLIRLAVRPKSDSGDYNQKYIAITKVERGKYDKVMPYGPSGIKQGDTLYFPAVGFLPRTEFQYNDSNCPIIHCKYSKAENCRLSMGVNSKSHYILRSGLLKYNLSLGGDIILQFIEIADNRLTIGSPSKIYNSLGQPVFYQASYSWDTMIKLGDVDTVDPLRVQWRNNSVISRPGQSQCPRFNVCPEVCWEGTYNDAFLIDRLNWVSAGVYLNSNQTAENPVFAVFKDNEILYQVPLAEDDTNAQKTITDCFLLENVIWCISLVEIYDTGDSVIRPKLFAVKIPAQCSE

For assay [4], the target named is T3, HeV RBP on live Hendra virus (Hendra virus, UniProt O89343 182-603).
T3 sequence: T2 sequence
Briefly: cell-based or functional assay.

The target in assay [5] is NiVB RBP on live Nipah virus Bangladesh (Nipah virus, strain Bangladesh, UniProt Q9IH62 182-602). Briefly: cell-based or functional assay.
Assay [6] concerns the target T4, NiVB-RBP head domain (residues 185-602), recombinant soluble (Nipah virus, strain Bangladesh, UniProt Q9IH62 185-602). In words: ELISA, RBP head domain coated on plate, hybridoma IgG. (An ELISA detects its analyte on a solid surface through an enzyme-linked reagent.)
The target in assay [7] is T5, HeV-RBP head domain (residues 185-604), recombinant soluble (Hendra virus, UniProt O89343 185-603).
T5 sequence: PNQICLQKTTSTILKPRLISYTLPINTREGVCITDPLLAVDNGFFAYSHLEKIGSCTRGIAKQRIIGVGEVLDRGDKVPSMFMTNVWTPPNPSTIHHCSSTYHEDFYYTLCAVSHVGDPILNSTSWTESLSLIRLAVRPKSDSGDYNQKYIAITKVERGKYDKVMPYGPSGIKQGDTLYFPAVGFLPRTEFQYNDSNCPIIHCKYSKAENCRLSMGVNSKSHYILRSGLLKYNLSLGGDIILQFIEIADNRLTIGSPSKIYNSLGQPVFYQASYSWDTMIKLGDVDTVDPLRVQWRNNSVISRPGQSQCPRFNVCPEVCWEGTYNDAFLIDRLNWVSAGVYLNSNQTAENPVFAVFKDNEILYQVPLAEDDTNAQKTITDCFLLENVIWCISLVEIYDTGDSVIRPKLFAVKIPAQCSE
Described as above.

In assay [8] the target is T6, NiVM-RBP head domain (residues 183-602), recombinant soluble (Nipah virus, strain Malaysia, UniProt Q9IH62 183-602).
T6 sequence: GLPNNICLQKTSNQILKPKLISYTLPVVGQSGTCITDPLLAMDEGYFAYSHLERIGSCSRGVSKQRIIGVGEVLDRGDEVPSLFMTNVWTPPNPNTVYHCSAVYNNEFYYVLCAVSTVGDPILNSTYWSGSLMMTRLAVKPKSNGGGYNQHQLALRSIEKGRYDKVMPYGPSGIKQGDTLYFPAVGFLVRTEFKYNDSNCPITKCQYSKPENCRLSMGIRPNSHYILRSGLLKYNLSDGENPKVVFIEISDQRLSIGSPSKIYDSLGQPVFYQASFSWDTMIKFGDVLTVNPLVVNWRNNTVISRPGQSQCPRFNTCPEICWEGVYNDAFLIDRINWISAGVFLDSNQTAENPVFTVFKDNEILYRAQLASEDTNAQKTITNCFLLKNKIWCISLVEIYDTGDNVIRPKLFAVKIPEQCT
The description is as above.

Assay [9] has as its target T4, NiVB-RBP head domain (residues …).
For assay [10], the target named is T5, HeV-RBP head domain (residues 185-604), ….
Assay [11] has as its target T6, NiVM-RBP head domain (residues …).
The next assay concerns the target T7, HeV-G.
T7 chain: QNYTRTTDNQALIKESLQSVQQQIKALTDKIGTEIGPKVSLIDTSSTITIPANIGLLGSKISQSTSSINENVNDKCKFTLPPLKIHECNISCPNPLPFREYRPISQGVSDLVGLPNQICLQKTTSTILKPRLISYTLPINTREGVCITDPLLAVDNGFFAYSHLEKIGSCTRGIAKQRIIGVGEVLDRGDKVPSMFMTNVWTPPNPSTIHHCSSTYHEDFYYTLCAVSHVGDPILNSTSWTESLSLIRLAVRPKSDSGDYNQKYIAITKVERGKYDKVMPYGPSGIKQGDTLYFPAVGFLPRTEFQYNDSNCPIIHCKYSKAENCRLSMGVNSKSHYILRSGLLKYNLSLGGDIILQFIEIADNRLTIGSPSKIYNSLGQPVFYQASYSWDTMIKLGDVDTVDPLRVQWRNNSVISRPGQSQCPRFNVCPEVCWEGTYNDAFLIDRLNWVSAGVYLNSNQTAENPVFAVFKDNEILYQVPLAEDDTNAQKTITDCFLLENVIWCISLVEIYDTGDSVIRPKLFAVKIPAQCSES

A further assay concerns the target T8, NiVM-G.
T8 chain: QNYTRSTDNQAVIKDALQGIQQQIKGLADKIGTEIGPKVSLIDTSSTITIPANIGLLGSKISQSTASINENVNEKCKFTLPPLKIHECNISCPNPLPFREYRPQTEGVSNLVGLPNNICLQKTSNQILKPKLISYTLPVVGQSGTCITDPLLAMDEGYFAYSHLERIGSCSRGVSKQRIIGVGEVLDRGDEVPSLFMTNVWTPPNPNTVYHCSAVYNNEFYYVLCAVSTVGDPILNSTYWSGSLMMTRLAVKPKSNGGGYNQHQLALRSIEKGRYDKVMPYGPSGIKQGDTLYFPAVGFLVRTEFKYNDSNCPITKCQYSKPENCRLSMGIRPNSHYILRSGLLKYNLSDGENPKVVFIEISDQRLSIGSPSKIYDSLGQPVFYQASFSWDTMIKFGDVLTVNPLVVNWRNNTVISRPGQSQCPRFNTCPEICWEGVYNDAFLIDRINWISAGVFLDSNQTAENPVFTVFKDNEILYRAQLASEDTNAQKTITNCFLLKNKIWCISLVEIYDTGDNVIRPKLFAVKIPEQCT

B1: HENV-32 (antibody, V domains shown)
VH: QVQLVQSGAEVKKPGSSVKVSCKVSGGIFNRETINWVRQAPGQGLEWMGRITPIVDVPNYPRKFRGRVTITADKSTSTVYMELSGLRFEDTAIYFCARFRGHNYFDPWGQGTLVTVSS
VL: SYVLTQPPSVSVAPGQTARITCGGNNIGGKSVHWYQQKPGQAPVLVVYDDRDRPSGIPERFSGSNSGDTASLTISRVDAGDEADYFCQVWDNASDEAVFGGGTKLTVL
By EC50 is commonly meant the concentration needed to bring the measured effect to its halfway point. On to B1, for which the half-maximal effective concentration (EC50) in assay [1] stood at 0.836 µg/mL; in [2] it was 0.76 µg/mL; in assay [3], 0.68 µg/mL; in assay [6] it was 0.96 µg/mL; in assay [7], 0.36 µg/mL; in [8], 0.42 µg/mL. The “IC50, plaque reduction neutralization of live virus” value in [4] was found to be 0.27 µg/mL; in assay [5], 0.38 µg/mL. Besides, the “Area under the curve” value was 6.6 in assay [6], 3.71 in assay [7] and 8 in assay [8].

B2: HENV-32 Fab (Fab, V domains shown)
VH: B1 VH
VL: B1 VL
As a reminder, the Kd is the constant that tells how readily two partners part at equilibrium. As to B2, the Kd in [9] came to 2.8 nM; in assay [10], 2.1 nM; in assay [11], 2.2 nM.

B3: HENV-242 (antibody, V domains shown)
VH: QVQLVQSGAEVKKPGSSVTVSCKTSGGTFSGYAVSWVRQAPGQGLEWMGRIVPQFNIPNYAQKFQDRVTITADESTGTSYMELSSLRSDDTAVFYCARENIQTIFGVVAMMGGGGYFDSWGQGTLVTVSS
VL: DIQMTQSPSSLSASVGDRVTITCQANQDINTYLNWYLQKPGKAPQLLVFDASNLVTGVPSRFSGGGSRTDFTLTIDSLQPEDIGTYYCQQYDHLPRRTFTFGPGTKVDLK
Consider B3, for which the EC50 with HeV-G stood at 6.6 nM; in the assay with NiVM-G, 0.716 nM.

The record behind these values is patent US12559545 (VANDERBILT UNIVERSITY, dated 2026).
